Reference: PMC8307404, “Crystal Structure-Guided Design of Bisubstrate Inhibitors and Photoluminescent Probes for Protein Kinases of the PIM Family” (Molecules, 2021)
Square brackets hold non-standard residues; d marks the D form. Peptide text beside a SMILES is read from it. * marks the point of attachment. X3 = O=C(CCCCCNCc1nc2c(sc3cc(Br)cnc32)c(=O)[nH]1)*

What was measured:
Experiment in all cases: Kinase profiling (radiometric filter-binding)
Assay type in all cases: biochemical
[1] = biological target: T1, BRSK2 (Homo sapiens, UniProt Q8IWQ3); settings: BRSK2, 1 µM inhibitor; read-out: Residual activity, %
T1 sequence (Q8IWQ3 1-736): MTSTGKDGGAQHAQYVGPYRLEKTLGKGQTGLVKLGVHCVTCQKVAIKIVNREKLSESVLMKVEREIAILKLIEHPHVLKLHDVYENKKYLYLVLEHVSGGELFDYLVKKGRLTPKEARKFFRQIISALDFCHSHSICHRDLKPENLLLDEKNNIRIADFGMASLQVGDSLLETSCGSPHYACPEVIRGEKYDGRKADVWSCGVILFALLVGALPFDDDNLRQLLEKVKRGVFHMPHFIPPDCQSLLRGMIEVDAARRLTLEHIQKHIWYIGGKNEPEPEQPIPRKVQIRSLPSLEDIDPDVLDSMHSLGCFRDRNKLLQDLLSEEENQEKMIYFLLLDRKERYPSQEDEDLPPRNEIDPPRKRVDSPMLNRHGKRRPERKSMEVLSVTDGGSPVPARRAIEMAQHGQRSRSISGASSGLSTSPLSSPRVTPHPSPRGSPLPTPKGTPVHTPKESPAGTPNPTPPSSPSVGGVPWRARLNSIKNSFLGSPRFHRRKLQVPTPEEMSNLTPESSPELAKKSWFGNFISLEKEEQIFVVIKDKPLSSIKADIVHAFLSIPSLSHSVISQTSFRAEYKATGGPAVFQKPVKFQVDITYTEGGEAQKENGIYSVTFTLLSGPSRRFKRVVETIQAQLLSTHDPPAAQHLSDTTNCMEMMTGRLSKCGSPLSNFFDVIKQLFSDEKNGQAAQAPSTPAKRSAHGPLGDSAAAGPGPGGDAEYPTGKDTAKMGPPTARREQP
In short: (§1)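 Human kinase, ATP (≤ KM) and test compound (1 µM final) were combined; phosphorylation was quantified by radiometric filter binding. Activity left was normalised to the control reaction without compound.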

[2] = biological target: T2, CHK1 (Homo sapiens, UniProt O14757); settings: CHK1, 1 µM inhibitor; read-out: Residual activity, %
T2 sequence (O14757 1-476): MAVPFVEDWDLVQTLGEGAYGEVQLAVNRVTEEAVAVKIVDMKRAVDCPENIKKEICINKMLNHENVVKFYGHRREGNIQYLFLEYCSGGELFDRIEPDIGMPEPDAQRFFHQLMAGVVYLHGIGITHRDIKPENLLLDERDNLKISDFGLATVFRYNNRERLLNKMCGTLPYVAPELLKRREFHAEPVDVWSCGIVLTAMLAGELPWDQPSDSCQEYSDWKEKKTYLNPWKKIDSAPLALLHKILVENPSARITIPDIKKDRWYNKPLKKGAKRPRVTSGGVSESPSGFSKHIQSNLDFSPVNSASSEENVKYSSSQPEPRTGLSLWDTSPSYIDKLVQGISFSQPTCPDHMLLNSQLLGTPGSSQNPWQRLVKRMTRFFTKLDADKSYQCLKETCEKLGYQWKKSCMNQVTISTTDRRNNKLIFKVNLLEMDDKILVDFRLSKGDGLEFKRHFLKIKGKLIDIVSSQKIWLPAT
In short: as §1

[3] = biological target: T3, DYRK3 (Homo sapiens, UniProt O43781); settings: DYRK3, 1 µM inhibitor; read-out: Residual activity, %
T3 sequence (O43781 1-588): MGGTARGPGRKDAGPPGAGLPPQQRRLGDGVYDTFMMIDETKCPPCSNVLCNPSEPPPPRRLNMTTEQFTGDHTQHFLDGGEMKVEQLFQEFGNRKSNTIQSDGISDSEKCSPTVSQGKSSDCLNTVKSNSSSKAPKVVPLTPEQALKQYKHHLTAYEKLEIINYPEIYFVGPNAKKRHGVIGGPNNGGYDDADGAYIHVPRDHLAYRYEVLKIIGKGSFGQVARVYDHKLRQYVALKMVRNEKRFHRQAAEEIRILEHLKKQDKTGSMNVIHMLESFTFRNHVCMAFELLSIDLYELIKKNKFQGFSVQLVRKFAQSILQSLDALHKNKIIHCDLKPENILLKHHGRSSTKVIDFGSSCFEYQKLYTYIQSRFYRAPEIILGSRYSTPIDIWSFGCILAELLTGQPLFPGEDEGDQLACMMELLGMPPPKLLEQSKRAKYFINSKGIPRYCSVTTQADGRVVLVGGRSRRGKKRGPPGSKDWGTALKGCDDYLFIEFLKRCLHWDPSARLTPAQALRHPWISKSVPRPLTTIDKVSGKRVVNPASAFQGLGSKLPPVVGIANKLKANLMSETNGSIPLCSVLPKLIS
In short: as §1

[4] = biological target: MARK1 (Homo sapiens, UniProt Q9P0L2); settings: MARK1, 1 µM inhibitor; read-out: Residual activity, %
In short: as §1

[5] = biological target: RSK2 (Homo sapiens, UniProt P51812); settings: RSK2, 1 µM inhibitor; read-out: Residual activity, %
In short: as §1

[6] = biological target: SmMLCK (Homo sapiens, UniProt Q15746); settings: 1 µM inhibitor, read-out: Residual activity, %
In short: as §1

[7] = biological target: Src (Homo sapiens, UniProt P12931); settings: 1 µM inhibitor, read-out: Residual activity, %
In short: as §1

[8] = biological target: T4, TGFBR1 (Homo sapiens, UniProt P36897); settings: TGFBR1, 1 µM inhibitor; read-out: Residual activity, %
T4 sequence (P36897 34-503): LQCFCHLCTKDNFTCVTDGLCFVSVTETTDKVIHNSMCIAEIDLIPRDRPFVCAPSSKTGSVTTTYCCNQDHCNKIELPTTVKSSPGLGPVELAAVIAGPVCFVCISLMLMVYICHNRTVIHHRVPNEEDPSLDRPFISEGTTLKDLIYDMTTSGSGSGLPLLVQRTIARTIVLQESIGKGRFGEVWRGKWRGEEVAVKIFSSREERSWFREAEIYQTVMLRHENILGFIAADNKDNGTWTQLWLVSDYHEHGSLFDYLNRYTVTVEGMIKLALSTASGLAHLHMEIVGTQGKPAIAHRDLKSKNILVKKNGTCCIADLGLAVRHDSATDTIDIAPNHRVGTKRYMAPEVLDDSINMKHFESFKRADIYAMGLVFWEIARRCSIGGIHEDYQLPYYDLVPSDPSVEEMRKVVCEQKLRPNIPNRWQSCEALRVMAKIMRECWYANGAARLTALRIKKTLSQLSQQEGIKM
In short: as §1

Src, sequence (P12931 whole entry): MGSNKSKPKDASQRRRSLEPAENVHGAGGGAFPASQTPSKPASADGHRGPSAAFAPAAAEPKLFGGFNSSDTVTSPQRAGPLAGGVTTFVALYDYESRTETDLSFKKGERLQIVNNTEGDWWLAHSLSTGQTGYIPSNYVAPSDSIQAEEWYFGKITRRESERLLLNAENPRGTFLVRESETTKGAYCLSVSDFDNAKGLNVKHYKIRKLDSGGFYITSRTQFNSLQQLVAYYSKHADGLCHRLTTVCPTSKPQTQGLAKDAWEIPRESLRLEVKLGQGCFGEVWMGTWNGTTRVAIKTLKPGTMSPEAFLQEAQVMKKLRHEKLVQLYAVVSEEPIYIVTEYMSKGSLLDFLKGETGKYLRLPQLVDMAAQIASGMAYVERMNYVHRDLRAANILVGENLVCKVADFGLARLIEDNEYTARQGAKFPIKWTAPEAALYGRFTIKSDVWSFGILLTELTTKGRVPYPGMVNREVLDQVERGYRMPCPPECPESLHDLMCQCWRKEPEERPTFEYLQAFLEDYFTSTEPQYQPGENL
MARK1, sequence (Q9P0L2 whole entry): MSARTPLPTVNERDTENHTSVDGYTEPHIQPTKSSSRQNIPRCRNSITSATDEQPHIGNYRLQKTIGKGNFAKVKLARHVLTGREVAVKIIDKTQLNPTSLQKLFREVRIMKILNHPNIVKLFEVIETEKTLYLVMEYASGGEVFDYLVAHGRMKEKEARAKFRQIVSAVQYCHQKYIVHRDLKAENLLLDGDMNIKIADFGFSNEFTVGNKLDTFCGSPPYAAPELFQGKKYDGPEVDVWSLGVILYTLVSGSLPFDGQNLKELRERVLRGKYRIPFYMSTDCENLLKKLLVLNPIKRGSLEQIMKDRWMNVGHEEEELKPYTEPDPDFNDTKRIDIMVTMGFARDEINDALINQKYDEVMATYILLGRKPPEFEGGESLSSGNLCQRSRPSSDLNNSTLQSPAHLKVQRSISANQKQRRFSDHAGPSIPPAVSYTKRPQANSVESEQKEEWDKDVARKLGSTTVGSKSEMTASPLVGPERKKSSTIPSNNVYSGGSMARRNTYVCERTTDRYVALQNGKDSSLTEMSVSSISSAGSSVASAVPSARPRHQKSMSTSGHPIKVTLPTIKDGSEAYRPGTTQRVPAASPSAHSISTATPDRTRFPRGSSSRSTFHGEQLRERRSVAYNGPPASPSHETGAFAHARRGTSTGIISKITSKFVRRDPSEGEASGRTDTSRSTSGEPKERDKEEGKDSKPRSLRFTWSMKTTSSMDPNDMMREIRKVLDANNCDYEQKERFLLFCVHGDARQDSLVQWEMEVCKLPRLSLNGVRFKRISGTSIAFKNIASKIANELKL
SmMLCK, sequence (Q15746 923-1914): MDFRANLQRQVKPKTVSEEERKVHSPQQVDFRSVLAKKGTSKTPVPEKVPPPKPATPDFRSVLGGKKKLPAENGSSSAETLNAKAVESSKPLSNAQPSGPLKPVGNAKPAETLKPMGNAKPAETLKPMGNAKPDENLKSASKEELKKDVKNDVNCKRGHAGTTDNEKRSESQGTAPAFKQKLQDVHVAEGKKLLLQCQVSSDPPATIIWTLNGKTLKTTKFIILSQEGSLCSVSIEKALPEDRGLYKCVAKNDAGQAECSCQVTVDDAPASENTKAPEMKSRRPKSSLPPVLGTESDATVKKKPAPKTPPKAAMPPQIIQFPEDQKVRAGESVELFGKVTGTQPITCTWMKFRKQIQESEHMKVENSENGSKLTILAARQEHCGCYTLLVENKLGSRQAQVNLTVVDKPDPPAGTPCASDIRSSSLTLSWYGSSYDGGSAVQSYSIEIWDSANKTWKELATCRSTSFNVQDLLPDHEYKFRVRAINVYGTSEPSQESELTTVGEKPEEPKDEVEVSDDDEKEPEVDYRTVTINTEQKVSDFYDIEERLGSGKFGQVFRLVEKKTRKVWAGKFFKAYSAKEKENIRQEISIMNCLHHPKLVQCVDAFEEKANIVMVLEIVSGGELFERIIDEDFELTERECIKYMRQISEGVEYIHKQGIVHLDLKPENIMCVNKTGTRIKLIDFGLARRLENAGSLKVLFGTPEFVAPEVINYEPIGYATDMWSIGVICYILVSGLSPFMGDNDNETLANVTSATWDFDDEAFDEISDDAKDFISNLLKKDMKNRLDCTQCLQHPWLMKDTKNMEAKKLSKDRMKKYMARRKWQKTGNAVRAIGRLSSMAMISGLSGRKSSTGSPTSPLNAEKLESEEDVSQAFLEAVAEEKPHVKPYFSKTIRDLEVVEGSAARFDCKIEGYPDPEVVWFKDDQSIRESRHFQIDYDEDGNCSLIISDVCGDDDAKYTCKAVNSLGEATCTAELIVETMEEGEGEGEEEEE
RSK2, sequence (P51812 whole entry): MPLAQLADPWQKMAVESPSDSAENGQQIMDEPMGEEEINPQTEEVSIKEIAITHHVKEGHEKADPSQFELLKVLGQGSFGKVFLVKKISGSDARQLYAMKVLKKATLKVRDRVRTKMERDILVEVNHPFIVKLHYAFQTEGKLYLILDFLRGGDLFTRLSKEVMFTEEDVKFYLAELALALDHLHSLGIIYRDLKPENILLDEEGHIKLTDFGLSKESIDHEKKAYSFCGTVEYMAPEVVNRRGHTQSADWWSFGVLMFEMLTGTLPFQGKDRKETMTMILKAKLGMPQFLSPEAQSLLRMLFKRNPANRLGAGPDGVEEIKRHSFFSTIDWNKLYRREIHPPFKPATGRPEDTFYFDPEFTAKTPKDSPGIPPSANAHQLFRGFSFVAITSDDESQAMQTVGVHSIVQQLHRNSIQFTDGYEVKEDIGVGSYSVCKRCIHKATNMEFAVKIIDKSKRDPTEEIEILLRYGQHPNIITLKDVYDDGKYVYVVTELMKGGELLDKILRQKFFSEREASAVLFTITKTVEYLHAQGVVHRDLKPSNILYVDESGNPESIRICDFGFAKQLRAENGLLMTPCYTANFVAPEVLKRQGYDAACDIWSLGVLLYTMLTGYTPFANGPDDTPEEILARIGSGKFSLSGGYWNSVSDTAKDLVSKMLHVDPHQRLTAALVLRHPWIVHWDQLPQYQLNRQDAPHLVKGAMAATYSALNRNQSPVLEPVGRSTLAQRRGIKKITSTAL

| Compound | remaining activity at 1 µM [1] [%] | remaining activity at 1 µM [2] [%] | remaining activity at 1 µM [3] [%] | remaining activity at 1 µM [4] [%] | remaining activity at 1 µM [5] [%] | remaining activity at 1 µM [6] [%] | remaining activity at 1 µM [7] [%] | remaining activity at 1 µM [8] [%] |
| --- | --- | --- | --- | --- | --- | --- | --- | --- |
| N=C(N)NCCC[C@@H](NC(=O)CCCCCNC(=O)Cn1cnc2c(I)c(I)c(I)c(I)c21)C(=O)N[C@H](CCCNC(=N)N)C(=O)N[C@H](CCCNC(=N)N)C(=O)N[C@H](CCCNC(=N)N)C(=O)N[C@H](CCCNC(=N)N)C(=O)N[C@H](CCCNC(=N)N)C(=O)N[C@H](CCCCN)C(N)=O [ARC-3125, TIBI-CH2-C(=O)-Ahx-(D-Arg)6-D-Lys-NH2] | 107 ± 23 | 76 ± 1 | 22 ± 2 | 76 ± 4 | 17 ± 1 | 66 ± 1 | 153 ± 22 | 108 ± 18 |
| N=C(N)NCCC[C@@H](NC(=O)CNC(=O)[C@@H](CCCNC(=N)N)NC(=O)[C@@H](CCCNC(=N)N)NC(=O)CCCCCCCNCc1nc2c(sc3cc(Br)cnc32)c(=O)[nH]1)C(=O)N[C@H](CCCCN)C(N)=O [Compound 1, BPTP-Aoc-(D-Arg)2-Gly-D-Arg-D-Lys-NH2] | 124 ± 12 | 122 ± 17 | 43 ± 6 | 110 ± 15 | 109 ± 11 | 98 ± 5 | 97 ± 3 | 103 ± 8 |
| N=C(N)NCCC[C@@H](NC(=O)CNC(=O)[C@@H](CCCNC(=N)N)NC(=O)[C@@H](CCCNC(=N)N)NC(=O)CCCCCCCNCc1nc2c(sc3ccc(Br)cc32)c(=O)[nH]1)C(=O)N[C@H](CCCCN)C(N)=O [Compound 2, BBTP-Aoc-(D-Arg)2-Gly-D-Arg-D-Lys-NH2] | 108 ± 12 | 112 ± 6 | 34 ± 2 | 113 ± 1 | 92 ± 10 | 98 ± 9 | 110 ± 12 | 106 ± 7 |
| N=C(N)NCCC[C@@H](NC(=O)CCCCCNCc1nc2c(sc3cc(Br)cnc32)c(=O)[nH]1)C(=O)N[C@H](CCCNC(=N)N)C(=O)N[C@H](CCCNC(=N)N)C(=O)N[C@H](CCCNC(=N)N)C(=O)N[C@H](CCCNC(=N)N)C(=O)N[C@H](CCCNC(=N)N)C(=O)N[C@H](CCCCN)C(N)=O [ARC-3126, BPTP-Ahx-(D-Arg)6-D-Lys-NH2] (X3-[dR][dR][dR][dR][dR][dR][dK]-NH2) | 100 ± 9 | 100 ± 6 | 82 ± 1 | 94 | 86 ± 15 | 116 ± 39 | 103 ± 2 | 109 ± 2 |
| N=C(N)NCCC[C@@H](NC(=O)CNC(=O)[C@@H](CCCNC(=N)N)NC(=O)[C@@H](CCCNC(=N)N)NC(=O)Cn1cc(CNCc2nc3c(sc4ccc(Br)cc43)c(=O)[nH]2)nn1)C(=O)N[C@H](CCCCN)C(N)=O [Compound 3, BBTP-Amt-(D-Arg)2-Gly-D-Arg-D-Lys-NH2] | 96 ± 8 | 104 ± 2 | 55 ± 4 | 106 ± 2 | 106 ± 11 | 94 | 119 ± 1 | 95 ± 10 |
